The results in this text go back to the DeepSol protein solubility set.

A short description of this series: soluble on expression in E. coli; label from the status in PepcDB or PDB records.
As to “MSLVTRSVLKFGGSSVSDFTKIKRIAEMLKERVNQDEQLIVVVSAMGNTTDQLMTNVSTLTKAPKQQELALLLTTGEQQTVSYLSMVLNDIGVNAKAMTGYQAGIKTIGHHLKSKIAQINPQTFEQAFQENDILVVAGFQGINEHQELTTLGRGGSDTTAVALAVSNQIPCEIYTDVDGVYATDPRLLPKAKRLDIVSYEEMMEMSALGAGVLETRSVELAKNYNIPLYLGKTLSNVKGTWIMSNEEILEKKAVTGVALDKHMMHVTISYPLPDNQLLTQLFTELEEGAVNVDMISQIVNLDGLQLSFTIKDSDFHQISMILETLKNQYEALAYKINEHYVKISLIGSGMRDMSGVASKAFLTLIENNIPFYQTTTSEISISYVIDDFNGQQAVEKLYDAFNIEGHHHHHH”, the “soluble on expression in E. coli” value is reported as “soluble”. In the case of “MSLYKAYLIDLDGTMYRGAEVIPEAIIFIENLKRAGLPYLFVTNNSTKTPGQVAEHLTDMGIQAVSDDVFTTSQATVQFMMEQKREKTVYVIGERGIKQELTDNGFEITSSNPAFVVVGLDREVDYEKFSKAALAVRGGAMFISTNGDAAIPTERGLLPGNGSITSVVSVATETAPIFIGKPESIIMEQALAKLGVHKDEAIMVGDNYETDIMAGINYGMDTLIVHTGFTSKEALLTKEIQPTYAVTKLTDWEFNEGHHHHHH”, the “soluble on expression in E. coli” value was “not soluble”.

For “MSMAMSQSNRELVVDFLSYKLSQKGYSWSQFSDVEENRTEAPEGTESEAVKQALREAGDEFELRYRRAFSDLTSQLHITPGTAYQSFEQVVNELFRDGVNWGRIVAFFSFGGALCVESVDKEMQVLVSRIAAWMATYLNDHLEPWIQENGGWDTFVELYGNNAAAESRKGQERLEHHHHHH”, the “soluble on expression in E. coli” value is recorded as “soluble”.

As for “MSNARIGIDMSKIYAPKSIDLSSFQLPDEKLQTKYGLPHKVEFCKSCVISNQRPNSAVEYEHKKESKKHTIHFDDEGICDACRVAERKKSTINWEERDRQLRELCDRFRSKDGSYDCVVPGSGGKDSFYAAHILKYKYGMNPLTVTWAPHMYTPWGWRNFQSWIHAGFDNHLFTPNGRVHRLLTRLAVENLFHPFQPFMIGQKAYAPKMALLHKIKLVVYGENEAEYGNPIGDTESAKRDWKYFTADDKSKIFLGGTSVQELKSDFGLNDNDLDAYLPADPQQIEEQQVEVHYLGYYLKWHPQSCYYYSVEHGGFEASPERTPGTYSKYNSIDDKIDDFHYYTTLTKFGIGRATYDASQEIRSGDITVEEGVALVKRFDQEFPERFAEEIFKYLSINLKEFPIASQMFEQPIMDRAYFMALADTFRSPHLWKKDGEQWKLRHQVTNLEKTKAEYLDLETV”, the “soluble on expression in E. coli” value was “not soluble”. As to “MSNDDNVELTDGFHVLIDALKMNDIDTMYGVVGIPITNLARMWQDDGQRFYSFRHEQHAGYAASIAGYIEGKPGVCLTVSAPGFLNGVTSLAHATTNCFPMILLSGSSEREIVDLQQGDYEEMDQMNVARPHCKASFRINSIKDIPIGIARAVRTAVSGRPGGVYVDLPAKLFGQTISVEEANKLLFKPIDPAPAQIPAEDAIARAADLIKNAKRPVIMLGKGAAYAQCDDEIRALVEETGIPFLPMGMAKGLLPDNHPQSAAATRAFALAQCDVCVLIGARLNWLMQHGKGKTWGDELKKYVQIDIQANEMDSNQPIAAPVVGDIKSAVSLLRKALKGAPKADAEWTGALKAKVDGNKAKLAGKMTAETPSGMMNYSNSLGVVRDFMLANPDISLVNEGANALDNTRMIVDMLKPRKRLDSGTWGVMGIGMGYCVAAAAVTGKPVIAVEGDSAFGFSGMELETICRYNLPVTVIIMNNGGIYKGNEADPQPGVISCTRLTRGRYDMMMEAFGGKGYVANTPAELKAALEEAVASGKPCLINAMIDPDAGVESGRIKSLNVVSKVGKK”, the “soluble on expression in E. coli” value is “soluble”. With “MSNEDSLPPFTLFGLDDVENYGLVTEADNSLPLDIHNQVFQLVEKGNQSFKESRFEEAISSYSKANSIKPLDPIVLGNRSAAYIRFGQYLKQRSASISEYKPLNGFDMSMLGELALKDADKLMSLQSSLVKSYITKACALMLLERYEVARDTILSGLQIDPFSGPLRSNLQELEKVMPNSMRKTHGMAERSDDFDCTVCLKLLYEPATTPCGHTFCRSCLFQSMDRGNKCPLCRTVIFMTPRTCAVSVTLNNIIEKNFPEEYAERKSEQDTLVHLGNESMPLFVMDVIIPCQKLSLHIFEPRYRLMVRRIMEGNHRMGMVALDSATGSPVDVACEVEITECDPLPDGRFVLELESHRRCRIVKAWDQDGYRVAEVEWVKDIPPQSEQGKADLRELTTSAASFARSWLDRAKEAARQGDRRRLEILLNVESMIPTPQDPERFSFWLATLTDRRPSERLELLRLQDTGEVLDYRLVQIARQISLFHQSLSFDC”, the “soluble on expression in E. coli” value is reported as “not soluble”.

Turning to “MSNKLESYRSEIVSLNHQILDLLSKRGELAQKIGEEKLKQGTRIYDPQREKEMLNDLIDSNKGPFNDNTIKQLFKEIFKASTDLQKSENEKHLYVSRKLKPEDTIVTFDNGGIIGDGNKSFVFGPCSVESFEQVEAVAKNLHAKGEKFIRGGAFKPRTSPYDFQGLGVEGLKILKQIKDKYDLNVVSEIVNPNDFEVADEYLDVFQIGARNMQNFELLKEAGRTKKPILLKRGLSATIEEFVYAAEYIASQGNQNIILCERGIRTYEKATRNTLDISAVPILKQGTHLPVMVDVTHSTGRKDIMLPTAKAALAVGADGVMAEVHPDPSVALSDAGQQMDLDEFQAFYDELKPLADLYNAKKLK”, the “soluble on expression in E. coli” value is given as “not soluble”. As for “MSNLEIKQGENKFYIGDDENHALAEITYRFVDNNEINIDHTGVSDELGGQGVGKKLVKAVVEHARENHLKIIASCSFAKHMLEKEDSYQDVYLG”, the “soluble on expression in E. coli” value is recorded as “soluble”. Consider “MSNLVLSLDISTSGTGWALFKGSDLIQSGVLKHKSKSYFERGRYMASQLRLIQSRALKKYDCYFSTIAVEKNSVMGPNQQSMLKIGIVTGIILGRLIADNVVFINVSTWRKYWKFSYKDRSKKSMKLQSKIKVEQEFNKSVKDDEADAILIGSYYVNQGYLDELETHDYY”, for which the “soluble on expression in E. coli” value is “soluble”.

In the case of “MSNMEPPPPMFPRSRIYHSYYSEEKTFSAPSANSQQGTQLPSKVYNKGLKDNDIEGLLSSLSIDELEDLNNDFDPDNSMLPPSQRCRDQTDKEPTGPYKRDNLLKFLEDKAKTEKDWEDVCPYTPGQKRGKVYDSDSGRNSEEPENGKMEMPIEIDLDDDEEELECALVTAPEKDLVDLAGILGMHNVLNQPQYYNALKGKTQDESTGTTFNGIMQSYVPRIVPDEPDNDTDVESCINRLREDDTDLKEVNINNMKRVSKERIRSLIEAACNSKHIEKFSLANTAISDSEARGLIELIETSPSLRVLNVESNFLTPELLARLLRSTLVTQSIVEFKADNQRQSVLGNQVEMDMMMAIEENESLLRVGISFASMEARHRVSEALERNYERVRLRRLGKDPNV”, the “soluble on expression in E. coli” value was “soluble”. Take “MSNNNSGSSNQLLVRGAEQALDQMKYEIAQEFGVQLGADATARANGSVGGEITKRLVSLAEQQLGGGVTR”: the “soluble on expression in E. coli” value is “soluble”. For the sequence “MSNRNLRSSTNSEFSEGQHQTPSSDSSGHGEDQPQASPGPNKKSHTPKKNISKGAVLHEKPMTVMVLTATEPFNYKEGKENMFHATVATESKYYRVKVFNMDLKEKFTENQFITISKYFNSSGILEINETATVSEAAPNQMFEVPKNIIRSAKETLKISKIKELDSGTLIYGVFAVEKKKVNDKSITFKIKDNEDNIKVVWDKEQHNINYEKGDKLQLFSFHLRKGNGKPILHSGNHSFIKGEKLLKESFEGDGYHKGPKQVVALKATKLFTYDSIKSKKMFHATVATDTEFFRVMVFEENLEKKFIPGNTIALSDYFGMYGSLAIHEYSSVSEVKSQNKEDSSSSDERPIEHLKICDLHLQTEERLVDGEFKVYRKSSGNNCICYGIWDDTGAMKVVVSGQLTSVNCEIGNTIRLVCFELTSNADEWFLRATRYSYMEVIMPEK”, the “soluble on expression in E. coli” value is recorded as “not soluble”.

For “MSNVMDLNLIQTFLVVAEFQSYTKAAEQLGLTQPAVSAAIKRLEQVVDKQLFVKKGRGITLTSAAYQLLPQFEQAVSIIDNAIMEKKHFEVCCSEILLHIMSPIKNAIFYESPPEKYILFELLRQQKVDLVIDTVVTKDAAFVMEEAYEEKAVIICREQHPRIQGTLSKEQFYDETHCLFSGKWNNMSGFEQLAQETILER”, the “soluble on expression in E. coli” value is recorded as “not soluble”. “MSPEGAERYDRNCDHQFQKGHVLIEMMGIKKGDFVLDVGCGTGRQALNVAGIIGPAGKLTGIDPSSYRIELARKKFEGDSSGNVRFLVRQAENLQDIPDNSINHAYFCSSFHWVDDKKTALNEIFRVLRPGGKVGMTTLDRNSPNTMKALIDPILAKFGIERRHEWHRGMKKVTAPELHDLLSGAGFTSISIEPRAVPRKYNSPEEFLQHPEEKDSSRGILRDISNETLEKLRQEITEEFRKAQTPEDIGFGNITLFAIATKAQEGLEHHHHHH”: the “soluble on expression in E. coli” value was “not soluble”.

As to “MSPVVSEASPERWDDETDVLVIGSGAGGLSAALFAAQAGLRVLICEKLAYVGGTTATSGGGIWVPGTKAGLAAGDTLEAARTYLKALLGDFYQEEVIDTYLATGGKVIDFLNENTEVKFDLSSWPDYRSSLPGGATRGRSLFPQPFDGKKLGRNFSLLHPPLHRLMVLGGLMLGPEEVHDFLRPFSSPRALMRVLRKLLRYGMDRIRYARGTDLRSGNALAARLLYSVDKLGCRILTQADLESLAIDHDRVIGATVVVGGVPKRIRASKAVLLATGGFAHNQEMLRRYGPATPHRFSLCNPACTGAGIQAALDAGASVDRELSSVGFWTPASASREKNGADTPVIYSYLDRGRPGVIAVNEQGERFVNEANSYHDIVTAIFANGGADGKPFYFITDREFVRRHGLGLIRPWPWNRSLRPWIRRGYITVASTLDKLGPKIGIDPGALAAAVQRHNQSARTGQDPDFHKGASAYNRMFGHNMIWPNPNLAPIETPPFVALRIHPATIGTAMGLKTSASGQALNAAGQPISGLYACGNDQASPFRGFYPGGGSTLGPAIVGAYLAVQSLSKQLEHHHHHH”, the “soluble on expression in E. coli” value is given as “not soluble”. For “MSQAAFVNPSILTWSRERAGLSAAQVARKLPVKPERVEEWESGEARPTFLQAQKWASVAHVPFGFLFLLQPPVEQLPLPDLRTVGNSAPLRPSLELLDTVKDAIRKQDWYLEYLHVQERQPLPFVGRFDSRTPVKTVVSDIRQTLGVDPEKSRLDYDKYSRALIDAAEVAGVLVMRSGIALGNTHRKLEVSEFRGFAISNPLAPVVFINSSDAPTARLFTLMHELAHIWIGSSGVSDAGTANGREEERFCNAVAGEFLVPEALFRTVWSASIEWESNLATLATRFHVSKLVIGRRAMDLGYVTQEQYGAYYQKILKAFRDEKGGAEDYYRNATAKNSTRLSKAVLTETLSGRMLLREAGNLLGVQPAKLRTLAAEHL”, the “soluble on expression in E. coli” value is given as “not soluble”. With “MSQANRTNGLVDYKELETNILSSIQEGKPLTGRDGALTPFIKRLLEASLEGEIESHMSAKSEENNRRNGRNAKTLRTSAGSFELLTPRDREGNFEPQIVKKRQTSLHPELEAKVLSTYASGMGYRDIASHVEEIYDHKISAAEISSITDKLLPIINEWRSRPLQSVYPIVFMDGMFFKVKEDGHCVSKCMYNILGINQNGRKEVLGFYLAESEGATFWLGVLNDLKERGVEDILIACIDGLKSFPTAINSVFPSAEVQLCIVHQIRNSLKYVSSKDVKVFMNDLKKIYRASSKEIAENYLLELEEKWGEKYPLVIKSWQNNWENLSSYFKYSGPVRKLIYTTNPIEGLHRQIRKFTKTKGSFTSTNALYKQVYCAIKKVEQKWIMALPNWALTMSQLDIFFPGRLKIELN”, the “soluble on expression in E. coli” value was “soluble”. Take “MSQEIYDYANQLERAVRALPEYQKVLEVKEAIQADVSASELFDEFVAMQEKIQGMMQSGQMPTAEEQTSIQELSQKIEANDQLKAYFEAQQALSVYMSDIERIVFAPLKDLVK”: the “soluble on expression in E. coli” value was “not soluble”.
